Values belong to the binder of their own block, whether it stands above or below them. Non-standard residues stand in square brackets, D forms with d. No end group written: not given here. pT = C[C@@H](OP(=O)(O)O)[C@H](N)C(=O)O; pS = N[C@@H](COP(=O)(O)O)C(=O)O
Experiments:
iPHF = iPHF (UniProt P10636-8 2-441); assay: BLI (Octet), antibody on biosensor tip
Procedure: Anti-human tau antibodies were assessed for affinity for iPHF by Octet (ForteBio, Menlo Park, CA) analysis. A set of recombinant human IgG1 antibodies were prepared with clone-specific variable domain pairs selected from those presented in Table 1 and human IgG1 constant domains. Candidate antibodies were immobilized on biosensor tips (ForteBio) in kinetic buffer (ForteBio). Biosensor tips were then washed before introduction of a solution of iPHF in kinetic buffer for analysis of association and dissociation with candidate antibodies.

[1] = biological target: T1, Tau phospho-peptide (pS235) (human); assay: one point ELISA on the pS235 peptide
T1 construct: also called pS235 phospho-peptide
T1 peptide: KVAVVRTPPK[pS]PSSAKPS

[2] = biological target: T2, Enriched paired helical filament (ePHF; sarkosyl insoluble tau) (human, UniProt P10636 2-758, pathological (hyperphosphorylated) tau isolated from brain; sites not stated); assay: direct ELISA, coated antigen
T2 construct: aggregate isolated from AD frontal cortical tissue
T2 sequence (P10636 other isoform, or with tags, fused parts or gaps limits assumed): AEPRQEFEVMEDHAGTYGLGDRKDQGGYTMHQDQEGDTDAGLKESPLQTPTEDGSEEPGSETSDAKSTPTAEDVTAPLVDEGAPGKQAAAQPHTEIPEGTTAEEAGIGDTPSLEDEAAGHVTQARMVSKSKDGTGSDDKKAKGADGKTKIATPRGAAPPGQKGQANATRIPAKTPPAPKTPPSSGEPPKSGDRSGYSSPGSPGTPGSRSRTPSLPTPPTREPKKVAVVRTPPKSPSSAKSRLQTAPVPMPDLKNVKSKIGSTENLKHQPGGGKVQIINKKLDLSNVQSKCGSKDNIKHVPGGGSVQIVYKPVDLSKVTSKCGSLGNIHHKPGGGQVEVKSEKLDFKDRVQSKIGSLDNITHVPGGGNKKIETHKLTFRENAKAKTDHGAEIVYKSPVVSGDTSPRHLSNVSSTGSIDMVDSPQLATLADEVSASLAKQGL
Procedure: (§1) A set of recombinant human IgG1 antibodies were prepared with clone-specific variable domain pairs selected from those presented in Table 1 and human IgG1 constant domains. These candidate antibodies were analyzed for binding to ePHF and specificity for ePHF over wild type tau by direct ELISA.
(§2) For direct ePHF and wildtype tau ELISA, plates were first coated with ePHF or wild type tau. Antigen solutions were prepared in PBS and 50 μL were pipetted into each well. Plates were covered and incubated for one hour at 37° C. or overnight at 4° C. Plates were then washed and blocked by addition of 150 μl of blocking buffer to each well and incubated one hour at room temperature. Plates were then washed before addition of serially diluted candidate antibody samples prepared in blocking buffer. Detection of candidate antibody binding was carried out by washing plates and adding a solution of enzyme-labeled secondary antibody in blocking buffer to each well. Secondary antibody binding was detected by addition of substrate and spectrophotometric analysis of resulting reaction product.

wild type tau = wild type tau (human, UniProt P10636 2-758); assay: direct ELISA, coated antigen
Sequence of wild type tau (P10636 other isoform, or with tags, fused parts or gaps limits assumed): as above
Procedure: as §1, §2

[3] = biological target: T3, Tau191-214 phospho-peptide (pS199) (human, pS199 (phosphoserine); SCBio-4PEG in the ELISA); assay: BLI
T3 construct: also called pS199 peptide

[4] = biological target: T4, SCBio-4PEG-Peptide (Tau191-214) pS199-old (human, pS199; SCBio-4PEG at the peptide as in the table head); assay: one point ELISA
T4 construct: the suffix old is not explained
T4 sequence (peptide, as listed by the source): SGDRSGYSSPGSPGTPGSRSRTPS
From the text: (§3) One-point ELISA was used to determine differential binding based on the individual phosphorylation patterns of each peptide. OD values (450 nm) were collected (as shown in Table 13), where a stronger positive signal is shown as a higher OD value, which is indicative of increased binding.

[5] = biological target: T3, Tau191-214 phospho-peptide (pS199); assay: one point ELISA
From the text: as §3

[6] = biological target: T5, AT8 peptide (amino acids 195-215 of tau) (human, phospho-peptide; the phosphorylated sites are not stated; immobilized on streptavidin biosensor tips); assay: BLI (Octet), peptide on streptavidin tip
T5 peptide: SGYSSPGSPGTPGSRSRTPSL
Procedure: Briefly, phospho-peptides were immobilized on streptavidin biosensor tips and the binding ability of each antibody was assessed using an eight-point concentration gradient.

[7] = biological target: T6, Tau204-222 phospho-peptide (pT212) (human, also: SCBiot-(dPEG4) in the ELISA); assay: one point ELISA
T6 peptide: GTPGSRSR[pT]PSLPTPPTRE
From the text: as §3

AC04 peptide = biological target: T7, AC04 peptide (human, pT212, pT217: CSR(pT)PSLP(pT)PPTREPK); assay: one point ELISA
T7 peptide: CSRXPSLPXPPTREPK
From the text: as §3

wtTau C2 = biological target: T8, wtTau C2 (human); assay: one point ELISA
T8 peptide: PTREPKKVA
From the text: as §3

[8] = biological target: T9, Tau204-222 phospho-peptide (pS214) (human, also: SCBiot-(dPEG4) in the ELISA); assay: one point ELISA
T9 peptide: GTPGSRSRTP[pS]LPTPPTRE
From the text: as §3

[9] = biological target: T10, Tau204-222 phospho-peptide (pT212/pS214) (human, also: SCBiot-(dPEG4) in the ELISA); assay: one point ELISA
T10 peptide: GTPGSRSR[pT]P[pS]LPTPPTRE
From the text: as §3

[10] = biological target: T11, AT270 peptide (pT181; Tau172-186) (human); assay: one point ELISA
T11 peptide: PAKTPPAPK[pT]PPSSG

Sequence of iPHF (P10636 other isoform, or with tags, fused parts or gaps): as the sequence (P10636 other isoform, or with tags, fused parts or gaps limits assumed) above

B2: VY019 (antibody, V domains shown)
VH: QVQLQESGPGLVKPSETLSLTCTVSGGSISSYYWTWIRQPAGKGLEWIGRIDTSGSTNYNPSLKSRVTMSIDTSKKQFSLKLSSVTAADTAVYYCARGGDGYRYWGQGTLVTVSS
VL: SYELTQPPSVSVSPGQTARITCSGDALPKQYACWYQQKPGQAPVLVIYKDSERPSGIPERFSGSSSGTTVTLTITGVQAEDEADYYCQSTDSSGSWVFGGGTKLTVL
binding result [1]: no binding (tested: not printed (one point))
binding result [2]: no binding
binding result (wild type tau): no binding

B3: VY007 (antibody, V domains shown)
VH: EVQLVESGGGLVQPGGSLRLSCAASRFTFSNYNMNWVRQAPGKGLEWISYISSSSSTIYYADSVKGRFTISRDNAKNSLSLQMNSLRDEDTAVYYCASLGRGYWGQGTLVTVSS
VL: not shown
binding result [3]: no binding
OD450 [4]: 0.057 OD450 nm
OD450 [5]: 0.057 OD450 nm
Kd (iPHF): 0.6 nM
Kd [6]: 18.2 pM
EC50 [2]: 0.18 nM

B4: VY001 (antibody, V domains shown)
VH: EVQLVESGGGLVQPGGSLRLSCAASGFTFSSYNMNWVRQAPGKGLEWISYISSSSNTIYYADSVKGRFTVSRDNAKNSLYLQMNSLRDEDTAVYYCATLGRGYWGQGTLVIASS
VL: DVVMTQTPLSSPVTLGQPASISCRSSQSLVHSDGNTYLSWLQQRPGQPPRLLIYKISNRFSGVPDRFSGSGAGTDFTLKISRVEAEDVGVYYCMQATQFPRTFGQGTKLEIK
binding result [3]: no binding
OD450 [4]: 0.059 OD450 nm
OD450 [5]: 0.059 OD450 nm
Kd (iPHF): 7.7 nM
Kd [6]: 4.35 pM
EC50 [2]: 0.02 nM

B5: VY016 (antibody, V domains shown)
VH: EVQLVESGGGLVQPGGSLRLSCAASGFTFSSYSMNWVRQAPGKGLEWVSYISRSGSTIYYADSVEGRFTISRDNAYNSLYLQMISLRDDDTAVYYCARGNWAYWGQGILVTVSS
VL: QSVLTQPPSVSGAPGQRVTISCTGSSSNIGAGYDVHWYQQLPGTAPKLLIYGNSNRPSGVPDRFSGSKSGTSASLAITGLQAEDETDFYCQSYDSSLSGSVFGGGTKLTVL
binding result [2]: no binding
binding result (wild type tau): no binding

B7: VY004 (antibody, V domains shown)
VH: EVQLVESGGGLVQAGGSLRLSCAASGFTFSDYSMNWVRQAPGKGLEWVSYIRSSSSIIYYADSVKGRFTISRDNAKNSLHLQMNSLRDEDTAVYYCARRGHFDYWGQGTLVTVSS
VL: EIVLTQSPATLSLSPGERATLSCRASQSVSDYLAWYQQKPGQAPRLFIYDVSKRATGIPARFSGSGSGTDFTLTISSLEPEDFAVYYCQQRSNWPLTFGGGTKVEIK
OD450 [7]: 0.082 OD450 nm
OD450 (AC04 peptide): 2.85 OD450 nm
OD450 (wtTau C2): 0.169 OD450 nm
OD450 [8]: 0.069 OD450 nm
OD450 [9]: 0.067 OD450 nm
Kd (iPHF): 3.7 nM
EC50 [2]: 0.07 nM

B8: VY017 (antibody, V domains shown)
VH: EVQLVESGGGLVQPGGSLRLSCAASGFTFSSYSMNWVRQAPGKGLEWVSYIRSSSSTIYYADSVKGRFTISRDNAKKSLYLQMNSLRDEDTAVYYCARRSIADYWGQGTLVTVSS
VL: EIVLTQSPATLSSSPGERATLSCRASQSVTSYLNWYQQKPGQAPRLLIYDASNRATGIPARFSGSGSGTDFTLTISSLEPEDFALYYCQQRSNWPYTFGQGTKLEIK
Kd (iPHF): 3.7 nM

B9: VY020 (antibody, V domains shown)
VH: EVQLVESGGGLVQPGGSLRLSCAASGFTFSSYSMNWVRQAPGKGLEWISYISSSNSTIKYADSVKGRFTISRDNAKNSLYLQMNSLRDEDTAVYYCARRSLGDYWGQGTLVIVSS
VL: EIVLTQSPATLSLSPGERATLSCRASQSVSSYLAWYLQKPGQAPRLLIYDVSNRATGIPARFSGSGSGTDFTLTISRLEPEDFAVYYCQQRRNWPYTFGQGTKLEIK
binding result [3]: no binding
Kd (iPHF): 2.6 nM
binding result [10]: no binding
binding result [6]: no binding

B11: VY014 (antibody, V domains shown)
VH: EVQLVESGGGLVQPGGSLRLSCAASGFTFNNYDMHWVRQAAGKGLEWVSTIGAAGDTYYPGSVKGRFIISRENAKNSLYLQMNSLRAGDTAVYYCARAGETLEGATIGYYYGMDVWGQGTTVTVSS
VL: DILMTQSPLSLPVTPGEPASISCRSSQSLLHSNGYNYLDWYLQKPGQSPQLLIYLGSNRASGVPDRFSGSGSGTDFTLKFSRVEAEDVGLYYCMQALQIPLTFGGGTKVEIK
Kd (iPHF): 5.3 nM
EC50 [2]: 6.23 nM
EC50 (wild type tau): 0.04 nM

B13: VY005 (antibody, V domains shown)
VH: EVQLVESGGGLVQPGGSLRLSCAASGFTFSSYSMNWVRQAPGKGLEWISYISSSNSTIKYADSVKGRFTISRDNAKNSLYLQMNSLRDEDTAVYYCARRSLGDYWGQGTLVIVSS
VL: DIQLTQSPSFLSASVGDRVTITCRASQGISCSLAWYQQKPGKAPKLLIYAASTLQSGVPSRFSGSGSGTEFTLTISSLQPEDFATYYCQQFNSYPFTFGPGTKVDIK
OD450 [7]: 0.087 OD450 nm
OD450 (AC04 peptide): 2.83 OD450 nm
OD450 (wtTau C2): 0.153 OD450 nm
OD450 [8]: 0.092 OD450 nm
OD450 [9]: 0.111 OD450 nm
Kd (iPHF): 1 nM
EC50 [2]: 0.07 nM

More lines, in order of falling Kd (iPHF), values ahead:

Kd (iPHF): 5.1 nM
EC50 [2]: 0.04 nM
EC50 (wild type tau): 0.01 nM
B12: VY012 (antibody, V domains shown)
VH: EVQLLESGGGLVQPGGSLRLSCAASGFTYSSYAMSWVRRAPGKGLEWISIISGSSSITYYADSMKGRFTISRDNSKNTLFLQMNSLRAEDTAVYYCAKGGRYGYFQHWGQGTLVTVSS
VL: SYVLTQPPSVSVAPGQTARITCGGNNIGSKSVHWYQQKPGQAPVLVVYDDSDRPSGIPERFSGSNSGNTATLTISRVEAGDEADYYCQVWDSSSDPVVFGGGTMLTVL

Kd (iPHF): 3 nM
B6: VY018 (antibody, V domains shown)
VH: QVQLQESGPGLVKPSETLSLTCTVSGGSISNYYWSWIRQPAGKGLEWIGRIYTSGDTYYNPSLQSRVTMSVDTSKNQFSLKLSAVTAADTAVYYCARAGIVGTPGLGMDVWGQGTTVTVSS
VL: SYELTQPPSVSVSPGQTARITCSGEALPKQYAYWYQQKPGQAPVLVIYKDSERPSGIPERFSGSSSGTTVTLTISGVQAEDEADYYCQSADSSGTYRVFGGGTKLTVL
binding result [1]: no binding (tested: not printed (one point))

Kd (iPHF): 2.9 nM
EC50 [2]: 0.06 nM
EC50 (wild type tau): 0.98 nM
B10: VY013 (antibody, V domains shown)
VH: QVTLKESGPVLVKPTETLTLTCTVSGFSLINARMAVSWIRQPPGKALEWLAHIFSNDEKSYSTSLKSRLTISKDTSKSQVVLIMTNMDPVDTATYYCARIRGYSYNYGMDVWGQGTTVTVSS
VL: DIVMTQSPLSLPVIPGEPASISCRSSQSLLHSNGYIYLDWYLQKPGQSPQLLIYVGSNRASGVPDRFSGSGSGTDFKLKISRVEAEDVGVYYCMQTLQIPRTFGGGTKVEIK

binding result [3]: no binding
OD450 [4]: 0.063 OD450 nm
OD450 [5]: 0.054 OD450 nm
Kd (iPHF): 1.5 nM
Kd [6]: 3.82 pM
EC50 [2]: 0.11 nM
B14: VY006 (antibody, V domains shown)
VH: EVQLVESGGGLVQPGGSLRLSCAASGFTFSSYTMNWVRQAPGKGLEWVSYISSSSSTIYYADSVKGRFTISRDNAKNSLYLQMNSLRDEDTAVYYCASLGRGDCWGQGTLVTVSS
VL: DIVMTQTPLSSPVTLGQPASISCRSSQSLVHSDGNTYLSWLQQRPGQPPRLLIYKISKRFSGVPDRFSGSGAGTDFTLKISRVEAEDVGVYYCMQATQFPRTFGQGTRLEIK

Kd (iPHF): 1.1 nM
EC50 [2]: 1.74 nM
B1: VY009 (antibody, V domains shown)
VH: QITLKESGPTLVKPTQTLTLTCTLSGFSLSTSEVGVGWIRQPPGKALEWLAIIYWNDHKRYSPSLKNRLTFTKDTSKNQVVLTMTNMDPVDTATYYCARRVTGEGFDPWGQGTLVTVSS
VL: SYELTQPPSVSVSPGQTARITCSGDALPKQYAYWYQQKPGQAPVLVIFKDTERPSGIPERFSGSSSGTTVTLTISGVQAEDEADYYCQSADSSGSYVFGTGTKVTVL
binding result [1]: no binding (tested: not printed (one point))

— patent US20240059766A1 (VOYAGER THERAPEUTICS, published 2024)
